# Biological target: BORCS5 L128Vfs*86, C-terminally GFP-tagged (human) (UniProt Q969J3)
# Assay: co-IP; GFP-Trap agarose precipitation of C-terminally GFP-tagged BORCS5 constructs from lysates of transfected cells 24 h after transfection (10 mM Tris-Cl pH 7.5, 150 mM NaCl, 0.5 mM EDTA, 1% Triton X-100, 10% glycerol), 2 h at 4°C, five washes; endogenous SNAPIN and BORCS7 detected by immunoblotting; GFP alone as control
binder,measurement,value
BORCS7 (natural protein) MMATGTPESQARFGQSVKGLLTEKVTTCGTDVIALTKQVLKGSRSSELLGQAARNMVLQEDAILHSEDSLRKMAIITTHLQYQQEAIQKNVEQSSDLQDQLNHLLK,percent less co-immunoprecipitated than with WT,30%

# Source: publication doi:10.1101/2025.04.30.25326597
